Assay results taken from PMC7253180, “A CLC-ec1 mutant reveals global conformational change and suggests a unifying mechanism for the CLC Cl^–/H^+ transport cycle” (eLife, 2020).
Residue numbers refer to the chain shown, from its start. Names and notes keep the numbering of the source.

B1: CLC-ec1 QQQ mutant (E148Q/E203Q/E113Q) (natural protein, E. coli)
chain: MKTDTPSLETPQAARLRRRQLIRQLLERDKTPLAILFMAAVVGTLVGLAAVAFDKGVAWLQNQRMGALVHTADNYPLLLTVAFLCSAVLAMFGYFLVRKYAPEAGGSGIPEIQGALEDQRPVRWWRVLPVKFFGGLGTLGGGMVLGRQGPTVQIGGNIGRMVLDIFRLKGDEARHTLLATGAAAGLAAAFNAPLAGILFIIEQMRPQFRYTLISIKAVFIGVIMSTIMYRIFNHEVALIDVGKLSDAPLNTLWLYLILGIIFGIFGPIFNKWVLGMQDLLHRVHGGNITKWVLMGGAIGGLCGLLGFVAPATSGGGFNLIPIATAGNFSMGMLVFIFVARVITTLLCFSSGAPGGIFAPMLALGTVLGTAFGMVAVELFPQYHLEAGTFAIAGMGALLAASIRAPLTGIILVLEMTDNYQLILPMIITGLGATLLAQFTGGKPLYSAILARTLAKQEAEQLARSKAAS
notes: CLC-ec1, prokaryotic (E. coli) CLC Cl-/H+ exchange transporter, from plasmid pASK-CLC-ec1; Helix A (N-terminal) has no density in the model; also called ClC-ec1 triple mutant (E113Q, E148Q, E203Q)
B2: D417C/QQQ CLC-ec1 (cysteine-less background), spin-labeled (natural protein, E. coli)
chain: B1 chain with C85A, C302A, C347S, D417C
modifications: MTSSL spin label on the substituted cysteine at 417
notes: CLC-ec1, prokaryotic (E. coli) CLC Cl-/H+ exchange transporter, from plasmid pASK-CLC-ec1; Helix P; source: purified under reducing conditions, then labeled with MTSSL
B3: WT CLC-ec1 (cysteine-less background) D417C, spin-labeled (natural protein, E. coli)
chain: MKTDTPSLETPQAARLRRRQLIRQLLERDKTPLAILFMAAVVGTLVGLAAVAFDKGVAWLQNQRMGALVHTADNYPLLLTVAFLASAVLAMFGYFLVRKYAPEAGGSGIPEIEGALEDQRPVRWWRVLPVKFFGGLGTLGGGMVLGREGPTVQIGGNIGRMVLDIFRLKGDEARHTLLATGAAAGLAAAFNAPLAGILFIIEEMRPQFRYTLISIKAVFIGVIMSTIMYRIFNHEVALIDVGKLSDAPLNTLWLYLILGIIFGIFGPIFNKWVLGMQDLLHRVHGGNITKWVLMGGAIGGLAGLLGFVAPATSGGGFNLIPIATAGNFSMGMLVFIFVARVITTLLSFSSGAPGGIFAPMLALGTVLGTAFGMVAVELFPQYHLEAGTFAIAGMGALLAASIRAPLTGIILVLEMTCNYQLILPMIITGLGATLLAQFTGGKPLYSAILARTLAKQEAEQLARSK
modifications: MTSSL spin label on the substituted cysteine at 417
notes: as for B2

How the values were obtained:
[1] = target: the molecule itself; assay: crystal structure; lipidic cubic phase (monoolein with 10% cholesterol), without any antibody Fab fragment; 100 mM Tris pH 8.5, 100 mM sodium malonate, 30% PEG 400, 2.5% MPD; 16°C
[2] = target: the molecule itself; assay: DEER spectroscopy; one MTSSL spin label per subunit, inter-subunit distance distributions; pH 7.5 and pH 4.5; 83 K, Q-band; four-pulse protocol (five-pulse for position 374)

| Protein | binding result [1] | binding result [2] |
| --- | --- | --- |
| B1 | binds |  |
| B2 |  | binds |
| B3 |  | binds |
